± gives the standard deviation of the averaged measurements.
Tests used:
MCF7 = assay: percentage of EdU-negative (G0-arrested) nuclei per well, 72 h; higher = more G0 arrest; details: reference: sequence is the full UniProt precursor, the tested protein was the secreted form or ectodomain
hTERT-HMEC = assay: as above; details: reference: sequence is the full UniProt precursor, the tested protein was the secreted form or ectodomain
[1] = protein concentration 0.0225 µM
[2] = protein concentration 0.014515 µM
[3] = protein concentration 0.14515 µM
[4] = protein concentration 0.00975 µM
[5] = protein concentration 0.0975 µM
[6] = protein concentration 0.01775 µM
[7] = protein concentration 0.1775 µM
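Note: secreted proteins added to cultured cells, EdU pulse at the end, nuclei found by Hoechst imaging, EdU status from nuclear versus surrounding ring intensity ratio, PBS as neutral control.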

Question: For “MASPGCLWLLAVALLPWTCASRALQHLDPPAPLPLVIWHGMGDSCCNPLSMGAIKKMVEKKIPGIYVLSLEIGKTLMEDVENSFFLNVNSQVTTVCQALAKDPKLQQGYNAMGFSQGGQFLRAVAQRCPSPPMINLISVGGQHQGVFGLPRCPGESSHICDFIRKTLNAGAYSKVVQERLVQAEYWHDPIKEDVYRNHSIFLADINQERGINESYKKNLMALKKFVMVKFLNDSIVDPVDSEWFGFYRSGQAKETIPLQETSLYTQDRLGLKEMDNAGQLVFLATEGDHLQLSEEWFYAHIIPFLG”, which “percentage of EdU-negative” value (MCF7; [1]) is on record?
Answer: 25.6 ± 1.6%

Question: What about the “percentage of EdU-negative” value (MCF7; protein concentration 0.225 µM) of the same sequence?
Answer: 26.4 ± 0.39%

Question: What about the “percentage of EdU-negative” value (hTERT-HMEC; [1]) of the same sequence?
Answer: 4.49 ± 0.2%

Question: What about the “percentage of EdU-negative” value (hTERT-HMEC; protein concentration 0.225 µM) of the same sequence?
Answer: 9.52 ± 0.25%

Question: How did the “percentage of EdU-negative” value (MCF7; [2]) turn out when “MASRLTLLTLLLLLLAGDRASSNPNATSSSSQDPESLQDRGEGKVATTVISKMLFVEPILEVSSLPTTNSTTNSATKITANTTDEPTTQPTTEPTTQPTIQPTQPTTQLPTDSPTQPTTGSFCPGPVTLCSDLESHSTEAVLGDALVDFSLKLYHAFSAMKKVETNMAFSPFSIASLLTQVLLGAGENTKTNLESILSYPKDFTCVHQALKGFTTKGVTSVSQIFHSPDLAIRDTFVNASRTLYSSSPRVLSNNSDANLELINTWVAKNTNNKISRLLDSLPSDTRLVLLNAIYLSAKWKTTFDPKKTRMEPFHFKNSVIKVPMMNSKKYPVAHFIDQTLKAKVGQLQLSHNLSLVILVPQNLKHRLEDMEQALSPSVFKAIMEKLEMSKFQPTLLTLPRIKVTTSQDMLSIMEKLEFFDFSYDLNLCGLTEDPDLQVSAMQHQTVLELTETGVEAAAASAISVARTLLVFEVQQPFLFVLWDQQHKFPVFMGRVYDPRA” was run?
Answer: 25.6 ± 1.5%

Question: What about the “percentage of EdU-negative” value (MCF7; [3]) of the same sequence?
Answer: 26 ± 0.75%

Question: And the “percentage of EdU-negative” value (hTERT-HMEC; [2])?
Answer: 5.48 ± 0.2%

Question: What about the “percentage of EdU-negative” value (hTERT-HMEC; [3]) of the same sequence?
Answer: 5.33 ± 0.56%

Question: Which “percentage of EdU-negative” value (MCF7; [1]) does the source give for “MASRWAVQLLLVAAWSMGCGEALKCYTCKEPMTSASCRTITRCKPEDTACMTTLVTVEAEYPFNQSPVVTRSCSSSCVATDPDSIGAAHLIFCCFRDLCNSEL” here?
Answer: 23.5 ± 2.8%

Question: And the “percentage of EdU-negative” value (MCF7; protein concentration 0.225 µM)?
Answer: 26.6 ± 1.9%

Question: And the “percentage of EdU-negative” value (hTERT-HMEC; [1])?
Answer: 5.43 ± 0.94%

Question: And the “percentage of EdU-negative” value (hTERT-HMEC; protein concentration 0.225 µM)?
Answer: 5.61 ± 1%

Question: With “MASSWKLMLFLSVTMCLSEYSKSLPGLSTSYAALLRIKKSSSSSLFGSKTRPRYSSPSLGTLSASSPSWLGAAQNYYSPINLYHSSDAFKQDESVDYGPVFVQEPDDIIFPTDSDEKKVALNCEVRGNPVPSYRWLRNGTEIDLESDYRYSLIDGTFIISNPSEAKDSGHYQCLATNTVGSILSREATLQFAYLGNFSGRTRSAVSVREGQGVVLMCSPPPHSPEIIYSWVFNEFPSFVAEDSRRFISQETGNLYISKVQTSDVGSYICLVKNTVTNARVLSPPTPLTLRNDGVMGEYEPKIEVHFPFTVTAAKGTTVKMECFALGNPVPTITWMKVNGYIPSKARLRKSQAVLEIPNVQLDDAGIYECRAENSRGKNSFRGQLQVYTYPHWVEKLNDTQLDSGSPLRWECKATGKPRPTYRWLKNGVPLSPQSRVEMVNGVLMIHNVNQSDAGMYQCLAENKYGAIYASAELKILASAPTFALNQLKKTIIVTKDQEVVIECKPQGSPKPTISWKKGDRAVRENKRIAILPDGSLRILNASKSDEGKYVCRGENVFGSAEIIASLSVKEPTRIELTPKRTELTVGESIVLNCKAIHDASLDVTFYWTLKGQPIDFEEEGGHFESIRAQASSADLMIRNILLMHAGRYGCRVQTTADSVSDEAELLVRGPPGPPGIVIVEEITESTATLSWSPAADNHSPISSYNLQARSPFSLGWQTVKTVPEIITGDMESAMAVDLNPWVEYEFRVVATNPIGTGDPSTPSRMIRTNEAVPKTAPTNVSGRSGRRHELVIAWEPVSEEFQNGEGFGYIVAFRPNGTRGWKEKMVTSSEASKFIYRDESVPPLTPFEVKVGVYNNKGDGPFSQIVVICSAEGEPSAAPTDVKATSVSVSEILVAWKHIKESLGRPQGFEVGYWKDMEQEDTAETVKTRGNESFVILTGLEGNTLYHFTVRAYNGAGYGPPSSEVSATTKKSPPSQAPSNLRWEQQGSQVSLGWEPVIPLANESEVVGYKVFYRQEGHSNSQVIETQKLQAVVPLPDAGVYIIEVRAYSEGGDGTASSQIRVPSYSGGKITSAQSTLHSLSTSSSSVTLLLALMIPSTSW” as the sequence, how does the “percentage of EdU-negative” value (MCF7; [4]) read?
Answer: 26.6 ± 0.15%

Question: What about the “percentage of EdU-negative” value (MCF7; [5]) of the same sequence?
Answer: 27.7 ± 2.5%

Question: What about the “percentage of EdU-negative” value (hTERT-HMEC; [4]) of the same sequence?
Answer: 4.88 ± 0.2%

Question: And the “percentage of EdU-negative” value (hTERT-HMEC; [5])?
Answer: 10.4 ± 0.39%

Question: For “MASTSYDYCRVPMEDGDKRCKLLLGIGILVLLIIVILGVPLIIFTIKANSEACRDGLRAVMECRNVTHLLQQELTEAQKGFQDVEAQAATCNHTVMALMASLDAEKAQGQKKVEELEGEITTLNHKLQDASAEVERLRRENQVLSVRIADKKYYPSSQDSSSAAAPQLLIVLLGLSALLQ”, which “percentage of EdU-negative” value (MCF7; [1]) is on record?
Answer: 26.3 ± 3.5%

Question: And the “percentage of EdU-negative” value (MCF7; protein concentration 0.225 µM)?
Answer: 26.7 ± 3.2%

Question: And the “percentage of EdU-negative” value (hTERT-HMEC; [1])?
Answer: 4.74 ± 0.69%

Question: What about the “percentage of EdU-negative” value (hTERT-HMEC; protein concentration 0.225 µM) of the same sequence?
Answer: 4.84 ± 0.58%

Question: What does the source list for “MASVVLPSGSQCAAAAAAAAPPGLRLRLLLLLFSAAALIPTGDGQNLFTKDVTVIEGEVATISCQVNKSDDSVIQLLNPNRQTIYFRDFRPLKDSRFQLLNFSSSELKVSLTNVSISDEGRYFCQLYTDPPQESYTTITVLVPPRNLMIDIQKDTAVEGEEIEVNCTAMASKPATTIRWFKGNTELKGKSEVEEWSDMYTVTSQLMLKVHKEDDGVPVICQVEHPAVTGNLQTQRYLEVQYKPQVHIQMTYPLQGLTREGDALELTCEAIGKPQPVMVTWVRVDDEMPQHAVLSGPNLFINNLNKTDNGTYRCEASNIVGKAHSDYMLYVYDPPTTIPPPTTTTTTTTTTTTTILTIITDSRAGEEGSIRAVDHAVIGGVVAVVVFAMLCLLIILGRYFARHKGTYFTHEAKGADDAADADTAIINAEGGQNNSEEKKEYFI [Q9BY67]”?
Answer: percentage of EdU-negative (MCF7; [1]): 24.5 ± 1.3%; percentage of EdU-negative (MCF7; protein concentration 0.225 µM): 24.7 ± 1.1%; percentage of EdU-negative (hTERT-HMEC; [1]): 4.74 ± 0.29%; percentage of EdU-negative (hTERT-HMEC; protein concentration 0.225 µM): 5.2 ± 0.79%

Question: With “MASWLRRKLRGKRRPVIAFCLLMILSAMAVTRFPPQRPSAGPDPGPMEPQGVTGAPATHIRQALSSSRRQRARNMGFWRSRALPRNSILVCAEEQGHRARVDRSRESPGGDLRHPGRVRRDITLSGHPRLSTQHVVLLREDEVGDPGTKDLGHPQHGSPIQETQSEVVTLVSPLPGSDMAALPAWRATSGLTLWPHTAEGRDLLGAENRALTGGQQAEDPTLASGAHQWPGSVEKLQGSVWCDAETLLSSSRTGGQAPPWLTDHDVQMLRLLAQGEVVDKARVPAHGQVLQVGFSTEAALQDLSSPRLSQLCSQGLCGLIKRPGDLPEVLSFHVDRVLGLRRSLPAVARRFHSPLLPYRYTDGGARPVIWWAPDVQHLSDPDEDQNSLALGWLQYQALLAHSCNWPGQAPCPGIHHTEWARLALFDFLLQVHDRLDRYCCGFEPEPSDPCVEERLREKCQNPAELRLVHILVRSSDPSHLVYIDNAGNLQHPEDKLNFRLLEGIDGFPESAVKVLASGCLQNMLLKSLQMDPVFWESQGGAQGLKQVLQTLEQRGQVLLGHIQKHNLTLFRDEDP [Q9UFP1]” as the sequence, how does the “percentage of EdU-negative” value (MCF7; [6]) read?
Answer: 25.4 ± 2.1%

Question: What about the “percentage of EdU-negative” value (MCF7; [7]) of the same sequence?
Answer: 24.5 ± 4.3%

Question: And the “percentage of EdU-negative” value (hTERT-HMEC; [6])?
Answer: 4.53 ± 0.69%

Question: What about the “percentage of EdU-negative” value (hTERT-HMEC; [7]) of the same sequence?
Answer: 4.83 ± 0.99%
